Assay results: patent US20230331781A1, “PAR4 DERIVED PEPTIDES, ANALOGS AND USES THEREOF” (Yissum Research Development Company of the Hebrew …, priority 2019, published 2023)
Numbered stars: 1 amine (or outer) side, 2 acyl side, 3 side chain; on linkers, the order of the positions; unused ones are H or OH. Bridge positions count the residues as written; N and C are the ends. Square brackets hold non-standard residues; d marks the D form. Ends that are not written are not given here. GlyBU(C4) = Gly building unit (N-alpha-functionalized Gly) carrying a C4 alkyl chain (n = m = 4), bridged through a urea group; CO = O=C([*:1])[*:2]

What was measured:
Format in all cases: cell-based
[1] = biological target: T1, PAR2 and Akt (Homo sapiens, UniProt P31749); assay: PAR2-Akt association, immunoprecipitation in HEK293 cells transfected with Par2 and SLIGKV activated; details: HEK 293 cells, flag-hPar2, SLIGKV 200 μM; 150 μM, 1 hr prior to activation; FIG. 11
T1 construct: FLAG; expressed in transfected cells; host or cells: HEK293
Method: HEK293 cells were transiently transfected with Par2 followed by SLIGKV PAR2 activation in the presence and absence of PAR4 c(4-4) at 150 μM. IP of cell lysates following different time of activation was carried out using anti PAR2 abs. Detection of Akt was performed by anti Akt abs. β-actin serves as a control gene for loading.
Briefly, HEK 293 cells were transfected with 0.8 μg flag-hPar2 and serum starved overnight. PAR(4-4) in concentration of 150 μM was applied onto the cell monolayer for 1 hr prior to PAR2 activation (by the peptide SLIGKV—200 μM) for the indicated time periods (overall transfection period is 48 hrs).
The cells (HEK 293) were solubilized and lysed and protein cell lysates (400 μg) were used for immunoprecipitation analysis, as described in Example 4.

[2] = biological target: T2, PAR4-Akt association (Homo sapiens, UniProt P31749); assay: PAR4-Akt association, immunoprecipitation in HEK293 cells transfected with flg-Par4 and AYPGKF activated; details: HEK293 cells, 50 nM-150 μM, FIG. 8A
T2 construct: FLAG; expressed in transfected cells
Method: Experiments shown in FIG. 3A-3C were carried out in MDA-MB-231 cells. […] Unpaired Student's t test was used. This experiment is a representative of three independent experiments performed in triplicates. […] HEK 293T cells were transfected with wt flg-Par4 followed by AYPGKF activation of PAR4. IP was performed using anti fig abs of cells treated or not with CTP4-A peptide and immunoblotting with anti-Akt abs.
FIG. 4A—PH-Akt module alone binds PAR4-C-tail but not mutant R25C. HEK 293 cells were transiently transfected with flg-Par4 construct and either with GFP-PH-Akt domain alone or GFP-R25C. IP of cell lysates following PAR4 AYPGKF activation was carried out using anti-flg abs. Detection of either Akt-PH domain alone associated with PAR4 was performed with anti-GFP. […] FIG. 4C—The PI3K inhibitor […] inhibits the binding of Akt to PAR4. Treatment of HEK 293 cells with LY294002 for various time points or not, following transient transfection with flg-Par4 and AYPGKF activation was performed. Cell lysates were immunoprecipitated with anti-flg antibodies, and anti-Akt was used to assess the association of Akt with the PAR4 C-tail. […] Amino acid residues of PAR4- and PAR2-PH binding motifs. FIG. 4E—mutations inserted into flg-Par4 generated flg-Par4MutE346A. HEK293 cells were transiently transfected with either wt flg-Par4 or flg-Par4MutE346A. IP of cell lysates following PAR4 activation was carried out using anti-flg abs. Detection of PAR4-Akt association was performed by anti Akt Abs. While association with wt Par4 is seen after 5 and 10 min AYPGKF PAR4 activation, when using flg-Par4 E346A no inhibition is seen and effective association with Akt is seen at 30 min activation. FIG. 4F—utations inserted into flg-Par4 generated flg-Par4Mut F347A and flg-Par4Mut D349A. HEK293 cells were transiently transfected with either wt flg-Par4 or flg-Par4Mut F347A or flg-Par4Mut D349A. IP of cell lysates following PAR4 activation was carried out using anti-f/g abs. Detection of PAR4-Akt association was performed by anti Akt Abs. While association with wt Par4 is seen after 5 min AYPGKF PAR4 activation, no such binding is obtained when using either flg-Par4 F347A or flg-Par4D349A.
HEK293 cells were transiently transfected with flg-Par4 followed by AYPGKF PAR4 activation in the presence and absence of PAR4c (4-4) within the range of 50 nM-150 μM. IP of cell lysates following different periods of activation was carried out using anti flg abs. Detection of Akt was performed by anti Akt abs. β-actin serves as a control gene for loading. […] Matrigel invasion before and after AYPGKF PAR4 activation and in the presence and absence of PAR4 c(4-4) inhibitor in the activated PAR4 cells. […] FIG. 8C—Histograms represent quantification of the cells/HPF invaded the Matrigel layer. […]

[3] = system: Lovo cancer cell-line; assay: Wound-scratch migration assay, Lovo cell monolayers; details: AYPGKF activated, 24 hr, 150 μM and 300 μM, FIG. 8D-8K
Method: HEK293 cells were transiently transfected with flg-Par4 followed by AYPGKF PAR4 activation in the presence and absence of PAR4c (4-4) within the range of 50 nM-150 μM. IP of cell lysates following different periods of activation was carried out using anti flg abs. Detection of Akt was performed by anti Akt abs. β-actin serves as a control gene for loading. […] Matrigel invasion before and after AYPGKF PAR4 activation and in the presence and absence of PAR4 c(4-4) inhibitor in the activated PAR4 cells. A range between 50 nM-150 μM PAR4 c(4-4) inhibitor was applied. While ample Matrigel invasion is seen following PAR4 activation, this was attenuated in the presence of the inhibitor in all the concentrations used, similar to control prior to PAR4 activation. FIG. 8C—Histograms represent quantification of the cells/HPF invaded the Matrigel layer. Unpaired Student's t test was used. This experiment is a representative of three independent experiments performed in triplicates. FIG. 8D-8K show Wound-scratch migration assay. Lovo cancer cell-line was grown to confluence. Then, an equal wound scratch was introduced to Lovo cell monolayers. Monolayers were serum starved overnight and PAR4 was activated or not with AYPGKF. One hour prior to activation PAR4 c(4-4), either at 150 μM or 300 μM concentrations was added to the monolayers.
Migration was evaluated by “wound scratch assay” applied. […]

T2 sequence (P31749 whole entry): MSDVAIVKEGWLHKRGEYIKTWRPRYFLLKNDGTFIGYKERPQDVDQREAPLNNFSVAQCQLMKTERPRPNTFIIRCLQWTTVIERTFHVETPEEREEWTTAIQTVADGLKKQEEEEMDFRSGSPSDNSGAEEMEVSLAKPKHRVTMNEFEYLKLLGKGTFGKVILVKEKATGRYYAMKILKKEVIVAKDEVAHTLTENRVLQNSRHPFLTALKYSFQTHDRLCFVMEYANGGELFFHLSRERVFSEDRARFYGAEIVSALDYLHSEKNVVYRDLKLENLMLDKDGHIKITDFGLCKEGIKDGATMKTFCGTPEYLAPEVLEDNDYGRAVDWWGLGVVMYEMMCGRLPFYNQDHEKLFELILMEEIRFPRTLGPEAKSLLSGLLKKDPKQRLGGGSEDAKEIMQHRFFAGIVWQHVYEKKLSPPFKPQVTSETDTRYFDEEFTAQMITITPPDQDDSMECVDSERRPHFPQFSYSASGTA
T1 sequence (P31749 whole entry): as above

Substance: Pc(4-4): backbone cyclic analog of Formula I, m=n=4, ring size 30 atoms (S[GlyBU(C4)]EFRDK[GlyBU(C4)]; bridge 2-8 via CO; not fully specified; printed as SZ1EFRDKX3)
- inhibition of PAR2-AKT association (IP) [1]: efficiently inhibited
- inhibition of Akt/PKB-PAR4 association (IP) [2]: strong inhibition
- inhibition of Akt/PKB-PAR4 association (IP) ([2]; listed as PAR4 c(4-4)): inhibits
- inhibition of migration/proliferation (wound scratch) [3]: marked inhibition
- inhibition of migration/proliferation (wound scratch) ([3]; listed as PAR4 c(4-4)): inhibits
